Results published in patent publication US20240398942A1 (CHIA TAI TIANQING PHARMACEUTICAL GROUP, published 2024).
Changes are numbered by the printed parent chain. Read-outs that look alike come from different tables or passages of the source. Each block holds one binder with its values, some of them ahead of it.

Assays:
human CD40-Fc protein [1] = target: T1, human CD40-Fc protein (human, biotinylated (sites not given) in the capture ELISA and the benchmark blocking ELISA; not biotinylated in the ligand blocking ELISA); experiment: capture ELISA: antibody captured on coated goat anti-human IgG F(ab')2, biotinylated human CD40-Fc 1.15 nM, streptavidin-HRP, OD(450-630)
T1 construct: also called biotinylated human CD40-Fc
Procedure: The plate was washed once with a washing buffer (PBS+0.05% v/v of Tween-20, PBST) and then blocked with 200 μL/well blocking buffer (PBST containing 5% w/v of skim milk) for 2 h at 37° C. The plate was washed 4 times, and the anti-CD40 antibody of the present application, BM1, BM2, and a negative control hIgG (human immunoglobulin for intravenous injection (pH 4), Hualan Biological Engineering Inc.) serially 5-fold diluted from 66.7 nM in a PBST containing 2.5% w/v of skim milk was added at 100 μL per well. The plate was incubated for 40 min at 37° C. and washed 4 times. A biotinylated human CD40-Fc protein (amino acid residues 21-193 of SEQ ID NO: 30 linked to the N terminus of amino acid residues 99-330 of SEQ ID NO: 28, dissolved in PBST containing 2.5% w/v of skim milk at a concentration of 1.15 nM) was added at 100 μL/well to a 96-well plate coated with the anti-CD40 antibody. The plate was incubated at 37° C. for 40 min and washed 4 times. An HRP-labeled streptavidin (diluted at 1:10000 in PBST, Jackson Immuno Research, Cat. No. 016-030-084) was added at 100 μL/well, and the plate was incubated at 37° C. for another 40 min. After the last wash, 100 μL/well of ELISA substrate TMB (Innoreagents, Cat. No. TMB-S-002) was added and the plate was incubated at room temperature. After 3-10 min, the reaction was stopped by adding 1 M H₂SO₄ at 50 µL/well, and the absorbance of each well was read on a microplate reader using the dual wavelength mode (TMB detection wavelength: 450 nm, reference wavelength: 630 nm). Curves of OD(450-630) values vs. antibody concentration were plotted. Data were analyzed using Graphpad Prism software, and EC₅₀ values were obtained.

[2] = target: T2, cynomolgus monkey CD40-his protein (Acro biosystems, Cat. No. CD0-C52H6) (cynomolgus monkey, UniProt G7PG38 21-193); experiment: SPR (Biacore T200), antibody captured on anti-human IgG chip, CD40-his as analyte, 1:1 fit
T2 construct: Bought protein; not shown: His tag
Excerpt: (§1) Briefly, a goat anti-human IgG (GE Healthcare, Cat. No. BR100839, human antibody capture kit) was covalently linked to a CM5 chip (GE Healthcare, Cat. No. BR100530, carboxymethylated dextran-coated chip) via the primary amine group using a standard amine coupling kit supplied by Biacore (GE Healthcare, Pittsburgh, PA, USA). Unreacted portions on the biosensor surface were blocked with ethanolamine. Then, the anti-CD40 antibody of the present application and two benchmark antibodies (BM1 (dacetuzumab, Genentech Inc., also referred to CD40-BM1, prepared in-house; the heavy and light chain amino acid sequences are set forth in SEQ ID NOs: 40 and 41, respectively) and BM2 (selicrelumab, Abgenix Inc., also referred to CD40-BM2, prepared in-house; the heavy and light chain amino acid sequences are set forth in SEQ ID NOS: 42 and 43, respectively)) at a concentration of 66.67 nM were directed through the chip at a flow rate of 10 μL/min. Then, serially diluted recombinant human CD40-his (Acro biosystems, Cat. No. CD0-H5228, serially 2-fold diluted from 80 nM in HBS-EP⁺ buffer (supplied by Biacore)) or cynomolgus monkey CD40-his protein (Acro biosystems, Cat. No. CD0-C52H6, serially 2-fold diluted from 80 nM in HBS-EP⁺ buffer (supplied by Biacore)) was directed through the chip at a flow rate of 30 μL/min. The antigen-antibody binding kinetics was tracked for 2 min and the dissociation kinetics was tracked for 10 min. The association and dissociation curves were fitted to a 1:1 Langmuir binding model using BIAcore evaluation software. KD, Kₐ, and Kd values were determined.

human CD40-Fc protein [3] = target: T1, human CD40-Fc protein; experiment: competitive ELISA: BM2 (selicrelumab) coated as competitor, antibody titrated and pre-mixed with biotinylated human CD40-Fc 0.23 nM, streptavidin-HRP, OD(450-630)
Procedure: The ability of the anti-CD40 antibody of the present application to block the binding of the benchmark to human CD40 was determined by competitive ELISA. Briefly, BM2 antibody was immobilized on a 96-well micro plates at 1 μg/mL in PBS, 100 µL/well, and incubated overnight at 4° C. The next day, the plate was washed once with a washing buffer before a blocking buffer (PBST containing 5% w/v of skim milk) was added. The plate was then incubated at 37° C. for 2 h for blocking. During the blocking of the 96-well plate, the anti-CD40 antibody of the present application or the benchmark was serially 5-fold diluted from 66.7 nM with a biotinylated human CD40-Fc protein (amino acid residues 21-193 of SEQ ID NO: 30 linked to the N terminus of amino acid residues 99-330 of SEQ ID NO: 28, dissolved in PBST containing 2.5% w/v of skim milk at a concentration of 0.23 nM) and then incubated at room temperature for 40 min. After the plate was washed 4 times, the antibody/biotinylated human CD40-Fc mixture was added at 100 μL/well to the plate coated with BM2. The plate was incubated at 37° C. for 40 min and again washed 4 times with the washing buffer. An HRP-labeled streptavidin was added at 100 μL/well, and the plate was incubated at 37° C. for 40 min to detect biotinylated human CD40-Fc immobilized on the plate. Again, the plate was washed 4 times with the washing buffer. Finally, TMB was added and the reaction was stopped by adding 1 M H₂SO₄. The absorbance was read on a microplate reader using the dual wavelength mode (TMB detection wavelength: 450 nm, reference wavelength: 630 nm). Curves of OD(450-630) values vs. antibody concentration were plotted. Data were analyzed using Graphpad Prism software, and IC₅₀ values were obtained.

[4] = target: T2, cynomolgus monkey CD40-his protein …; experiment: SPR (Biacore T200), antibody captured on anti-human IgG chip, CD40-his as analyte, 1:1 fit; remark: listed apart in the source
Excerpt: as §1

[5] = target: T3, recombinant human CD40-his (Acro biosystems, Cat. No. CD0-H5228) (human, UniProt P25942 21-193); experiment: as above
T3 construct: Bought protein; also called human CD40-his protein; not shown: His tag
Excerpt: as §1

- EC50 (human CD40-Fc protein [1]): 0.628 nM
- Kd [2]: 9.89 nM
- koff [2]: 0.00616 s⁻¹
- kon [2]: 623000 M⁻¹ s⁻¹
- IC50 (human CD40-Fc protein [3]): 0.0461 nM
- Kd [4]: 9.68 nM
- koff [4]: 0.0074 s⁻¹
- kon [4]: 764000 M⁻¹ s⁻¹
- Kd [5]: 9.42 nM
- koff [5]: 0.00756 s⁻¹
- kon [5]: 803000 M⁻¹ s⁻¹
B1: BM1 (dacetuzumab) (antibody, human IgG1, kappa, V domains shown)
VH: EVQLVESGGGLVQPGGSLRLSCAASGYSFTGYYIHWVRQAPGKGLEWVARVIPNAGGTSYNQKFKGRFTLSVDNSKNTAYLQMNSLRAEDTAVYYCAREGIYWWGQGTLVTVSS
VL: DIQMTQSPSSLSASVGDRVTITCRSSQSLVHSNGNTFLHWYQQKPGKAPKLLIYTVSNRFSGVPSRFSGSGSGTDFTLTISSLQPEDFATYFCSQTTHVPWTFGQGTKVEIKR
notes: Benchmark antibody, prepared in-house; also called CD40-BM1; benchmark

- EC50 (human CD40-Fc protein [1]): 1.36 nM
- Kd [4]: 8.73 nM
- koff [4]: 0.00151 s⁻¹
- kon [4]: 173000 M⁻¹ s⁻¹
- Kd [5]: 7.84 nM
- koff [5]: 0.00162 s⁻¹
- kon [5]: 206000 M⁻¹ s⁻¹
B2: BM2 (selicrelumab) (antibody, human IgG2, kappa, V domains shown)
VH: not shown
VL: DIQMTQSPSSVSASVGDRVTITCRASQGIYSWLAWYQQKPGKAPNLLIYTASTLQSGVPSRFSGSGSGTDFTLTISSLQPEDFATYYCQQANIFPLTFGGGTKVEIKR
notes: Benchmark antibody, prepared in-house; also called CD40-BM2; benchmark

- IC50 (human CD40-Fc protein [3]): 0.513 nM
- Kd [4]: 1.11 nM
- koff [4]: 0.00237 s⁻¹
- kon [4]: 2.14e+06 M⁻¹ s⁻¹
- Kd [5]: 1.1 nM
- koff [5]: 0.00248 s⁻¹
- kon [5]: 2.25e+06 M⁻¹ s⁻¹
B3: humanized antibody huC1H1-V1 (antibody, human IgG2, kappa, V domains shown)
VH: EVQLVESGGGLVKPGGSLRLSCAASGFTFSNYGISWVRQAPGKGLEWVASISSGGDNTYYPDNVKGRFTISRDNAKNSLYLQMNSLRAEDTAVYYCARAGEKAMDYWGQGTLVTVSS
VL: EIVLTQSPATLSLSPGERATLSCRASQTINNNLHWYQQKPGQAPRLLIKYASQSISGIPARFSGSGSGTDFTLTISSLEPEDFAVYFCQQFSSWPLTFGGGTKVEIKR
notes: Human IgG2 / kappa

- IC50 (human CD40-Fc protein [3]): 0.318 nM
- Kd [4]: 1.07 nM
- koff [4]: 0.00274 s⁻¹
- kon [4]: 2.56e+06 M⁻¹ s⁻¹
- Kd [5]: 1.17 nM
- koff [5]: 0.0027 s⁻¹
- kon [5]: 2.31e+06 M⁻¹ s⁻¹
B4: humanized antibody huC1H1-V2 (antibody, human IgG2, kappa, V domains shown)
VH: B3 VH with A49S
VL: B3 VL
notes: Human IgG2 / kappa

- IC50 (human CD40-Fc protein [3]): 0.125 nM
B5: mouse anti-CD40 monoclonal antibody C1H1 (antibody, V domains shown)
VH: EVKLVESGGGLVKPGASLKLSCAASGFTFSNYGISWVRQTSDKRLEWVASISSGGDNTYYPDNVKGRFTISRENAKNTLYLQMSSLKSEDTALYYCARAGEKAMDYWGQGTSVTVSS
VL: DIVLTQSPVTLSVTPGDSVSLSCRASQTINNNLHWYQQKSHESPRLLIKYASQSISGIPSRFSGSGSGTDFTLSINSVETEDFGIYFCQQFSSWPLTFGAGTKLELK
notes: Parent mouse antibody from a hybridoma; the mouse constant regions are not; also called Mouse C1H1

- Kd [2]: 1.06 nM
- koff [2]: 0.00148 s⁻¹
- kon [2]: 1.39e+06 M⁻¹ s⁻¹
- IC50 (human CD40-Fc protein [3]): 0.16 nM
- Kd [4]: 0.846 nM
- koff [4]: 0.00215 s⁻¹
- kon [4]: 2.54e+06 M⁻¹ s⁻¹
- Kd [5]: 0.884 nM
- koff [5]: 0.00222 s⁻¹
- kon [5]: 2.51e+06 M⁻¹ s⁻¹
B6: chimeric antibody C1H1 (antibody, human IgG1, kappa, V domains shown)
VH: B5 VH
VL: DIVLTQSPVTLSVTPGDSVSLSCRASQTINNNLHWYQQKSHESPRLLIKYASQSISGIPSRFSGSGSGTDFTLSINSVETEDFGIYFCQQFSSWPLTFGAGTKLELKR
notes: also called Chimeric C1H1
